Consider 3 proteins from article PMC3728543, “Structure-Based Mechanism for Early PLP-Mediated Steps of Rabbit Cytosolic Serine Hydroxymethyltransferase Reaction” (BioMed Research International, 2013).

The series concerns the molecule itself. In words: crystal structure; crystals from 2-3% PEG4000, 20 mM K2HPO4/KH2PO4, 50 mM potassium MES or sodium HEPES pH 7.0, room temperature, protein 50 mg/mL; unliganded or with 60 mM glycine or L-serine; space group P41 with a tetramer per asymmetric unit (T254C-glycine: P41212, a dimer per asymmetric unit).

Where a chain is given by its changes, count along the chain named. In names and notes the source's numbering stands.

B1: rabbit cytosolic serine hydroxymethyltransferase, wild type (enzyme, UniProt P07511 1-484, looked up)
chain: MATAVNGAPRDAALWSSHEQMLAQPLKDSDAEVYDIIKKESNRQRVGLELIASENFASRAVLEALGSCLNNKYSEGYPGQRYYGGTEHIDELETLCQKRALQAYGLDPQCWGVNVQPYSGSPANFAVYTALVEPHGRIMGLDLPDGGHLTHGFMTDKKKISATSIFFESMAYKVNPDTGYIDYDRLEENARLFHPKLIIAGTSCYSRNLDYGRLRKIADENGAYLMADMAHISGLVVAGVVPSPFEHCHVVTTTTHKTLRGCRAGMIFYRRGVRSVDPKTGKEILYNLESLINSAVFPGLQGGPHNHAIAGVAVALKQAMTPEFKEYQRQVVANCRALSAALVELGYKIVTGGSDNHLILVDLRSKGTDGGRAEKVLEACSIACNKNTCPGDKSALRPSGLRLGTPALTSRGLLEKDFQKVAHFIHRGIELTVQIQDDTGPRATLKEFKEKLAGDEKHQRAVRALRQEVESFAALFPLPGLPGF
modifications: pyridoxal 5'-phosphate bound as internal aldimine to the epsilon-amino group of Lys257
notes: rabbit cytosolic serine hydroxymethyltransferase (rcSHMT, EC 2.1.2.1); cDNA in the pET22b vector; the wild type probably came the same way; also called rcSHMT; wild type rcSHMT
Regarding B1, the “stoichiometry N” value came out at 4.

B2: rabbit cytosolic serine hydroxymethyltransferase T254A mutant (enzyme, UniProt P07511 1-484, looked up)
chain: B1 chain with T254A
modifications: pyridoxal 5'-phosphate bound to Lys257 (internal aldimine; gem-diamine with glycine or L-serine)
notes: rabbit cytosolic serine hydroxymethyltransferase (rcSHMT) with T254A; cDNA in the pET22b vector; numbering is that for rcSHMT; also called T254A rcSHMT
B2: the “stoichiometry N” value came to 4.

B3: rabbit cytosolic serine hydroxymethyltransferase T254C mutant (enzyme, UniProt P07511 1-484, looked up)
chain: B1 chain with T254C
modifications: pyridoxal 5'-phosphate bound to Lys257 (internal aldimine; gem-diamine with glycine or L-serine)
notes: rabbit cytosolic serine hydroxymethyltransferase (rcSHMT) with T254C; cDNA in the pET22b vector; numbering is that for rcSHMT; also called T254C rcSHMT
B3: the “stoichiometry N” value worked out at 4.

By stoichiometry N is commonly meant a count of units in the complex or per binding partner.
